{"source": "patent US20250163127A1"}
{"biological_target": "PD-L1 (human)", "sequence (chain, as listed by the source)": "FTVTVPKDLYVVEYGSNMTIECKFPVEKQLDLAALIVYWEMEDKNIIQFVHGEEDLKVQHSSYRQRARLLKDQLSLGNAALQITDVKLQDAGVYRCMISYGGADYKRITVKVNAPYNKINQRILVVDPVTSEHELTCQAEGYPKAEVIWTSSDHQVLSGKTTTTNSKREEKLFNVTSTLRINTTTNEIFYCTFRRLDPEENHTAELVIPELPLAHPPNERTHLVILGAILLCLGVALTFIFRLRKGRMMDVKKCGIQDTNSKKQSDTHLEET", "assay": "flow cytometry, CHO cells stably expressing PD-L1", "units": {"MFI at 33.3 nM": "MFI"}}
{"substance": "CD80 variant E24D/Q33L/E35D/M47V/K54R/L85Q IgV-Fc (Fc fusion)", "MFI at 33.3 nM": 67100}
{"substance": "CD80 variant E35D/M47I/K54R/L85E IgV-Fc (Fc fusion)", "MFI at 33.3 nM": 36900}
{"substance": "CD80 variant E35D/M47V/T62A/A71G/V83A/Y87H/L97M IgV-Fc (Fc fusion)", "MFI at 33.3 nM": 77500}
{"substance": "CD80 variant Q27H/E35D/M47L/L85Q/R94Q/E95K IgV-Fc (Fc fusion)", "MFI at 33.3 nM": 36100}
{"substance": "CD80 variant Q33L/E35D/M47V IgV-Fc (Fc fusion)", "MFI at 33.3 nM": 47900}
{"substance": "CD80 variant Q33L/E35D/M47V/T79A IgV-Fc (Fc fusion)", "MFI at 33.3 nM": 62100}
{"substance": "CD80 variant Q33R/E35D/K37E/M47V/L85Q IgV-Fc (Fc fusion)", "MFI at 33.3 nM": 44400}
{"biological_target": "CD28 (human) (UniProt P10747)", "assay": "flow cytometry, Jurkat cells (CD28)", "units": {"MFI at 33.3 nM": "MFI"}}
{"substance": "CD80 variant A26E/E35D/M43I/M47L/L85Q/K86E/R94W IgV-Fc (Fc fusion)", "MFI at 33.3 nM": 314}
{"substance": "CD80 variant E35D/D46V/M47I/A71G/F92V IgV-Fc (Fc fusion)", "MFI at 33.3 nM": 7540}
{"substance": "CD80 variant E35D/M47L/A71G/L97Q IgV-Fc (Fc fusion)", "MFI at 33.3 nM": 300}
{"substance": "CD80 variant E35D/M47V/T62A/A71G/V83A/Y87H/L97M IgV-Fc (Fc fusion)", "MFI at 33.3 nM": 305}
{"substance": "CD80 variant Q27H/E35D/M47L/L85Q/R94Q/E95K IgV-Fc (Fc fusion)", "MFI at 33.3 nM": 282}
{"substance": "CD80 variant Q33R/E35D/D46E/M47I IgV-Fc (Fc fusion)", "MFI at 33.3 nM": 303}
{"substance": "CD80 variant Q33R/E35D/K37E/M47V/L85Q IgV-Fc (Fc fusion)", "MFI at 33.3 nM": 258}
{"substance": "CD80 variant S15P/Q33L/E35D/M47L/L85Q IgV-Fc (Fc fusion)", "MFI at 33.3 nM": 266}
{"biological_target": "CD28 (human) (UniProt P10747)", "assay": "flow cytometry, transfected cells", "units": {"MFI": "MFI"}}
{"substance": "ICOSL-Fc N52D/N57A/Q100A (Fc fusion)", "MFI": 138000}
{"substance": "ICOSL-Fc N52D/Q100S (Fc fusion)", "MFI": 95700}
{"substance": "ICOSL-Fc N52G/N57P/Q100D (Fc fusion)", "MFI": 5720}
{"substance": "ICOSL-Fc N52G/Q100A (Fc fusion)", "MFI": 98700}
{"substance": "ICOSL-Fc N52H/N57Y/Q100K (Fc fusion)", "MFI": 142000}
{"substance": "ICOSL-Fc N52P/N57P (Fc fusion)", "MFI": 21000}
{"substance": "ICOSL-Fc N52R/N57F/Q100N (Fc fusion)", "MFI": 161000}
{"substance": "ICOSL-Fc N52R/N57F/Q100P (Fc fusion)", "MFI": 154000}
{"substance": "ICOSL-Fc N52R/N57F/Q100R (Fc fusion)", "MFI": 185000}
{"substance": "ICOSL-Fc N52R/N57W (Fc fusion)", "MFI": 137000}
{"substance": "ICOSL-Fc N52R/N57Y/Q100P (Fc fusion)", "MFI": 133000}
{"substance": "ICOSL-Fc N52S/N57A/Q100A (Fc fusion)", "MFI": 98200}
{"substance": "ICOSL-Fc N52S/N57L/Q100G (Fc fusion)", "MFI": 71900}
{"substance": "ICOSL-Fc N52T/N57K/Q100P (Fc fusion)", "MFI": 88700}
{"substance": "ICOSL-Fc N52T/N57Y/Q100A (Fc fusion)", "MFI": 161000}
{"substance": "ICOSL-Fc N52V/N57L/Q100A (Fc fusion)", "MFI": 132000}
{"biological_target": "CTLA-4 (Homo sapiens (Human)) (UniProt P16410)", "sequence (P16410 36-223)": "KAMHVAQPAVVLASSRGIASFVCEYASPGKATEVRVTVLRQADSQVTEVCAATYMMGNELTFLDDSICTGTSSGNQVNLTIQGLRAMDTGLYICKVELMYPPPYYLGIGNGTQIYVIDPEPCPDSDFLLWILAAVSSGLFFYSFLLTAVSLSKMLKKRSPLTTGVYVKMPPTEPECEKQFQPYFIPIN", "assay": "flow cytometry, transfected cells", "units": {"MFI": "MFI"}}
{"substance": "ICOSL ECD-Fc N52H/N57Y/Q100R/F172S (Fc fusion)", "MFI": 606000}
{"substance": "ICOSL-Fc N52D/N57A/Q100A (Fc fusion)", "MFI": 340000}
{"substance": "ICOSL-Fc N52D/Q100S (Fc fusion)", "MFI": 333000}
{"substance": "ICOSL-Fc N52G/N57P/Q100D (Fc fusion)", "MFI": 10200}
{"substance": "ICOSL-Fc N52R/N57F/Q100N (Fc fusion)", "MFI": 233000}
{"substance": "ICOSL-Fc N52R/N57F/Q100P (Fc fusion)", "MFI": 504000}
{"substance": "ICOSL-Fc N52R/N57F/Q100R (Fc fusion)", "MFI": 464000}
{"substance": "ICOSL-Fc N52R/N57W (Fc fusion)", "MFI": 318000}
{"substance": "ICOSL-Fc N52R/N57Y/Q100P (Fc fusion)", "MFI": 502000}
{"substance": "ICOSL-Fc N52S/N57A/Q100A (Fc fusion)", "MFI": 233000}
{"substance": "ICOSL-Fc N52S/N57L/Q100G (Fc fusion)", "MFI": 79400}
{"substance": "ICOSL-Fc N52T/N57K/Q100P (Fc fusion)", "MFI": 78300}
{"substance": "ICOSL-Fc N52T/N57Y/Q100A (Fc fusion)", "MFI": 341000}
{"substance": "ICOSL-Fc N52V/N57L/Q100A (Fc fusion)", "MFI": 252000}
{"biological_target": "ICOS (Homo sapiens (Human)) (UniProt Q9Y6W8)", "sequence (Q9Y6W8 21-199 limits assumed)": "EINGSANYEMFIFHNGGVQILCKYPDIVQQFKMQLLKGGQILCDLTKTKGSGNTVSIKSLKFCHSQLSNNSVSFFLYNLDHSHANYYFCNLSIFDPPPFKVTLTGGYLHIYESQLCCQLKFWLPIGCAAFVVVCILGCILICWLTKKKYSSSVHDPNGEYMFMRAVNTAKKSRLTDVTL", "assay": "flow cytometry, transfected cells", "units": {"MFI": "MFI"}}
{"substance": "ICOSL ECD-Fc N52H/N57Y/Q100R/F172S (Fc fusion)", "MFI": 238000}
{"substance": "ICOSL-Fc N52G/Q100A (Fc fusion)", "MFI": 303000}
{"substance": "ICOSL-Fc N52H/N57Y/Q100K (Fc fusion)", "MFI": 214000}
{"biological_target": "CTLA4 (human)", "sequence (chain, as listed by the source)": "as the sequence (P16410 36-223) above", "assay": "flow cytometry, CHO cells stably expressing CTLA4", "units": {"MFI at 33.3 nM": "MFI"}}
{"substance": "CD80 variant A26E/E35D/M43I/M47L/L85Q/K86E/R94W IgV-Fc (Fc fusion)", "MFI at 33.3 nM": 2950}
{"substance": "CD80 variant E24D/Q33L/E35D/M47V/K54R/L85Q IgV-Fc (Fc fusion)", "MFI at 33.3 nM": 311000}
{"substance": "CD80 variant E35D/M47I/K54R/L85E IgV-Fc (Fc fusion)", "MFI at 33.3 nM": 8660}
{"substance": "CD80 variant E35D/M47L/A71G/L97Q IgV-Fc (Fc fusion)", "MFI at 33.3 nM": 226000}
{"substance": "CD80 variant E35D/M47V/T62A/A71G/V83A/Y87H/L97M IgV-Fc (Fc fusion)", "MFI at 33.3 nM": 18100}
{"substance": "CD80 variant Q33L/E35D/M47V IgV-Fc (Fc fusion)", "MFI at 33.3 nM": 47600}
{"substance": "CD80 variant Q33L/E35D/M47V/T79A IgV-Fc (Fc fusion)", "MFI at 33.3 nM": 28900}
{"substance": "CD80 variant Q33R/E35D/D46E/M47I IgV-Fc (Fc fusion)", "MFI at 33.3 nM": 3560}
{"biological_target": "PD-L1 (human)", "assay": "flow cytometry, cells expressing PD-L1", "units": {"MFI": "MFI"}}
{"substance": "WT CD80 (Fc fusion)", "MFI": 70}
{"substance": "variant CD80 L70Q/A91G/N144D (Fc fusion)", "MFI": 6}
{"substance": "variant CD80 Y31H/T41G/M43L/L70Q/A91G/I118V/T120S/I126V/T130A (Fc fusion)", "MFI": 6}
{"biological_target": "CD28, full-length, expressed on transfected cells (Homo sapiens (Human)) (UniProt P10747)", "assay": "flow cytometry, cells expressing target", "units": {"MFI": "MFI"}}
{"substance": "ICOSL ECD-Fc N30D/N52S/L67P/Q100K/D217G/R221K/T225S (Fc fusion)", "MFI": 1990}
{"substance": "ICOSL ECD-Fc N52S/E90A (Fc fusion)", "MFI": 31100}
{"substance": "ICOSL ECD-Fc N52S/T113E (Fc fusion)", "MFI": 54}
{"biological_target": "CD80 (human) (UniProt P33681)", "sequence (P33681 35-288)": "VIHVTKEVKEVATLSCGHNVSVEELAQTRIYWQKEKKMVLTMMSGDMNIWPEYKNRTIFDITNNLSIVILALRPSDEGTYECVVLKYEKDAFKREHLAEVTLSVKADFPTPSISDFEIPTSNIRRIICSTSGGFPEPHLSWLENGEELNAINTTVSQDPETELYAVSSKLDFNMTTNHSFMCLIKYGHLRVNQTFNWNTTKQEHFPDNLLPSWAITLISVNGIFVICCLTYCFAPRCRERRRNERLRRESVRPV", "assay": "flow cytometry, cells expressing the partner", "units": {"MFI": "MFI"}}
{"substance": "CTLA-4 ECD-Fc L98R/N110K (Fc fusion)", "MFI": 2110}
{"biological_target": "CD86 (human) (UniProt P42081)", "assay": "flow cytometry, cells expressing the partner", "units": {"MFI": "MFI"}}
{"substance": "CTLA-4 ECD-Fc L98R/N110K (Fc fusion)", "MFI": 665000}
